For assay [1], the target named is T1, DLL4 (DLL4 ECD/His tag, R&D Systems 1506-D4-050) (UniProt Q9NR61 27-529).
T1 construct: extracellular domain; not shown: His tag
Description: Direct bind ELISA on DLL4; DLL4 domain N-term., HC short, LC long. (ELISA stands for enzyme-linked immunosorbent assay.)

In assay [2] the target is T1, DLL4 (DLL4 ECD/His tag, R&D Systems …). Description: Direct bind ELISA on DLL4; DLL4 domain C-term., HC long, LC short.

We go through eight molecules from patent US20100260668A1 (published 2010).

B1: DVD507 (DLL4/VEGF DVD-Ig) (bispecific antibody, human IgG1)
VH: EVQLQQSGPELVKPGASVKMSCKASGYTFTSYVINWVKQKPGQGLEWIGLINPYNDGTKYNEKFKVKATLTSDKSSSTAYMELSSLTSEDSAVYYCASYYYGSRYYFDYWGQGTTLTVSSASTKGPEVQLVESGGGLVQPGGSLRLSCAASGFTISDYWIHWVRQAPGKGLEWVAGITPAGGYTYYADSVKGRFTISADTSKNTAYLQMNSLRAEDTAVYYCARFVFFLPYAMDYWGQGTLVTVSS
VL: DIQMTQSSSYLSVSLGGRVTITCKASDHINNWLAWYQQKPGNAPRLLISGATSLETGVPSRFSGSGSGKDYTLSITSLQTEDVATYYCQQYWSIPLTFGAGTKLELKRTVAAPSVFIFPPDIQMTQSPSSLSASVGDRVTITCRASQDVSTAVAWYQQKPGKAPKLLIYSASFLYSGVPSRFSGSGSGTDFTLTISSLQPEDFATYYCQQSYTTPPTFGQGTKVEIKR
notes: HC linker short, LC linker long; also called DVD507H; DVD507L
What is called EC50 is the concentration at which the effect is half-maximal. Read a low EC50 as a more potent agent. For the molecule B1, in assay [1], the concentration for a half-maximal effect (EC50) came to 0.71 nM. This counts as sub-nanomolar.

B2: DVD478 (VEGF/DLL4 DVD-Ig) (bispecific antibody, human IgG1)
VH: EVQLVESGGGLVQPGGSLRLSCAASGFTISDYWIHWVRQAPGKGLEWVAGITPAGGYTYYADSVKGRFTISADTSKNTAYLQMNSLRAEDTAVYYCARFVFFLPYAMDYWGQGTLVTVSSASTKGPSVFPLAPEVQLVESGGGLVQPGGSLRLSCAASGFTFTDNWISWVRQAPGKGLEWVGYISPNSGFTYYADSVKGRFTISADTSKNTAYLQMNSLRAEDTAVYYCARDNFGGYFDYWGQGTLVTVSS
VL: DIQMTQSPSSLSASVGDRVTITCRASQDVSTAVAWYQQKPGKAPKLLIYSASFLYSGVPSRFSGSGSGTDFTLTISSLQPEDFATYYCQQSYTTPPTFGQGTKVEIKRTVAAPDIQMTQSPSSLSASVGDRVTITCRASQDVSTAVAWYQQKPGKAPKLLIYSASFLYSGVPSRFSGSGSGTDFTLTISSLQPEDFATTYYCQQSYTGTVTFGQGTKVEIKR
notes: HC linker long, LC linker short; also called DVD478H; DVD478L
In assay [2], B2 showed an EC50 of 2.53 nM. This counts as single-digit nanomolar.

B3: DVD461 (DLL4/VEGF DVD-Ig) (bispecific antibody, human IgG1)
VH: QVQLVQSGAEVKKPGASVKISCKASGYSFTAYYIHWVKQAPGQGLEWIGYISSYNGATNYNQKFKGRVTFTTDTSTSTAYMELRSLRSDDTAVYYCARDYDYDVGMDYWGQGTLVTVSSASTKGPEVQLVESGGGLVQPGGSLRLSCAASGFTISDYWIHWVRQAPGKGLEWVAGITPAGGYTYYADSVKGRFTISADTSKNTAYLQMNSLRAEDTAVYYCARFVFFLPYAMDYWGQGTLVTVSS
VL: DIVMTQSPDSLAVSLGERATISCRASESVDNYGISFMKWFQQKPGQPPKLLIYAASNQGSGVPDRFSGSGSGTDFTLTISSLQAEDVAVYYCQQSKEVPWTFGGGTKVEIKRTVAAPSVFIFPPDIQMTQSPSSLSASVGDRVTITCRASQDVSTAVAWYQQKPGKAPKLLIYSASFLYSGVPSRFSGSGSGTDFTLTISSLQPEDFATYYCQQSYTTPPTFGQGTKVEIKR
notes: HC linker short, LC linker long; also called DVD461H; DVD461L
In turn, B3 displayed an EC50 in assay [1] of 0.52 nM.

B4: DVD531 (DLL4/VEGF DVD-Ig) (bispecific antibody, human IgG1)
VH: EVQLQQSGPELEKPGASVKISCKASGYSFTGYNMNWVKQSNGKSLEWIGNIDPYFGGTNYNQKFKGKATLTVDKSSSTAYMQLKSLTSEDSAVYYCARNYDYDGGCFDYWGQGTTLTVSSASTKGPEVQLVESGGGLVQPGGSLRLSCAASGFTISDYWIHWVRQAPGKGLEWVAGITPAGGYTYYADSVKGRFTISADTSKNTAYLQMNSLRAEDTAVYYCARFVFFLPYAMDYWGQGTLVTVSS
VL: QAVVTQESALTTSPGETVTLTCRSSTGAVTTSNYANWVQEKPDHLFTGLIGGTNNRAPGVPARFSGSLIGDKAALTITGAQTEDEAIYFCALWYSNHWVFGGGTKLTVLGQPKAAPSVTLFPPDIQMTQSPSSLSASVGDRVTITCRASQDVSTAVAWYQQKPGKAPKLLIYSASFLYSGVPSRFSGSGSGTDFTLTISSLQPEDFATYYCQQSYTTPPTFGQGTKVEIKR
notes: HC linker short, LC linker long; also called DVD531H; DVD531L
In turn, B4 displayed a concentration for a half-maximal effect (EC50) in assay [1] of 0.57 nM.

B5: DVD526 (VEGF/DLL4 DVD-Ig) (bispecific antibody, human IgG1)
VH: EVQLVESGGGLVQPGGSLRLSCAASGFTISDYWIHWVRQAPGKGLEWVAGITPAGGYTYYADSVKGRFTISADTSKNTAYLQMNSLRAEDTAVYYCARFVFFLPYAMDYWGQGTLVTVSSASTKGPSVFPLAPEVQLQQSGPELEKPGASVKISCKASGYSFTGYNMNWVKQSNGKSLEWIGNIDPYFGGTNYNQKFKGKATLTVDKSSSTAYMQLKSLTSEDSAVYYCARNYDYDGGCFDYWGQGTTLTVSS
VL: DIQMTQSPSSLSASVGDRVTITCRASQDVSTAVAWYQQKPGKAPKLLIYSASFLYSGVPSRFSGSGSGTDFTLTISSLQPEDFATYYCQQSYTTPPTFGQGTKVEIKRTVAAPQAVVTQESALTTSPGETVTLTCRSSTGAVTTSNYANWVQEKPDHLFTGLIGGTNNRAPGVPARFSGSLIGDKAALTITGAQTEDEAIYFCALWYSNHWVFGGGTKLTVLG
notes: HC linker long, LC linker short; also called DVD526H; DVD526L
In assay [2], B5 registered a half-maximal effective concentration (EC50) of 1.57 nM.

B6: DVD456 (VEGF/DLL4 DVD-Ig) (bispecific antibody, human IgG1)
VH: EVQLVESGGGLVQPGGSLRLSCAASGFTISDYWIHWVRQAPGKGLEWVAGITPAGGYTYYADSVKGRFTISADTSKNTAYLQMNSLRAEDTAVYYCARFVFFLPYAMDYWGQGTLVTVSSASTKGPSVFPLAPQVQLVQSGAEVKKPGASVKISCKASGYSFTAYYIHWVKQAPGQGLEWIGYISSYNGATNYNQKFKGRVTFTTDTSTSTAYMELRSLRSDDTAVYYCARDYDYDVGMDYWGQGTLVTVSS
VL: DIQMTQSPSSLSASVGDRVTITCRASQDVSTAVAWYQQKPGKAPKLLIYSASFLYSGVPSRFSGSGSGTDFTLTISSLQPEDFATYYCQQSYTTPPTFGQGTKVEIKRTVAAPDIVMTQSPDSLAVSLGERATISCRASESVDNYGISFMKWFQQKPGQPPKLLIYAASNQGSGVPDRFSGSGSGTDFTLTISSLQAEDVAVYYCQQSKEVPWTFGGGTKVEIKR
notes: HC linker long, LC linker short; also called DVD456H; DVD456L
B6: in assay [2], the EC50 is 2.48 nM. This EC50 lies about 1.6-fold higher than the previous one.

B7: DVD483 (DLL4/VEGF DVD-Ig) (bispecific antibody, human IgG1)
VH: EVQLVESGGGLVQPGGSLRLSCAASGFTFTDNWISWVRQAPGKGLEWVGYISPNSGFTYYADSVKGRFTISADTSKNTAYLQMNSLRAEDTAVYYCARDNFGGYFDYWGQGTLVTVSSASTKGPEVQLVESGGGLVQPGGSLRLSCAASGFTISDYWIHWVRQAPGKGLEWVAGITPAGGYTYYADSVKGRFTISADTSKNTAYLQMNSLRAEDTAVYYCARFVFFLPYAMDYWGQGTLVTVSS
VL: DIQMTQSPSSLSASVGDRVTITCRASQDVSTAVAWYQQKPGKAPKLLIYSASFLYSGVPSRFSGSGSGTDFTLTISSLQPEDFATTYYCQQSYTGTVTFGQGTKVEIKRTVAAPSVFIFPPDIQMTQSPSSLSASVGDRVTITCRASQDVSTAVAWYQQKPGKAPKLLIYSASFLYSGVPSRFSGSGSGTDFTLTISSLQPEDFATYYCQQSYTTPPTFGQGTKVEIKR
notes: HC linker short, LC linker long; also called DVD483H; DVD483L
B7: a half-maximal effect in assay [1] (EC50) was put at 0.63 nM.

B8: DVD502 (VEGF/DLL4 DVD-Ig) (bispecific antibody, human IgG1)
VH: EVQLVESGGGLVQPGGSLRLSCAASGFTISDYWIHWVRQAPGKGLEWVAGITPAGGYTYYADSVKGRFTISADTSKNTAYLQMNSLRAEDTAVYYCARFVFFLPYAMDYWGQGTLVTVSSASTKGPSVFPLAPEVQLQQSGPELVKPGASVKMSCKASGYTFTSYVINWVKQKPGQGLEWIGLINPYNDGTKYNEKFKVKATLTSDKSSSTAYMELSSLTSEDSAVYYCASYYYGSRYYFDYWGQGTTLTVSS
VL: DIQMTQSPSSLSASVGDRVTITCRASQDVSTAVAWYQQKPGKAPKLLIYSASFLYSGVPSRFSGSGSGTDFTLTISSLQPEDFATYYCQQSYTTPPTFGQGTKVEIKRTVAAPDIQMTQSSSYLSVSLGGRVTITCKASDHINNWLAWYQQKPGNAPRLLISGATSLETGVPSRFSGSGSGKDYTLSITSLQTEDVATYYCQQYWSIPLTFGAGTKLELKR
notes: HC linker long, LC linker short; also called DVD502H; DVD502L
The molecule B8 showed an EC50 in assay [2] of 3.17 nM.
